The target in the experiment is Lysine-specific demethylase 1 (human (endogenous in HEL), UniProt O60341 1-852). Description: affinity purification with mass spectrometry; LSD1-IP from HEL cells treated with NCD38 or DMSO; label-free quantification (Progenesis QI); binding rate change = normalized abundance in NCD38-treated cells divided by that in DMSO-treated cells, normalized to LSD1. To be noted: partners not purified.

The values that follow come from publication PMC5940392 (Oncotarget, 2018).

B1: GFI1B (natural protein)
chain: not shown
notes: GFI1B, human, UniProtKB Q5VTD9; source: endogenous, HEL whole-cell lysate
Take B1: the “binding rate after NCD38 relative to DMSO” value was 27%.
